The nature of this data set: protein stability index of a GFP-peptide fusion (GPS, HEK-293T) (PSI 1-6); higher = more stable. To be noted: c terminus: a fixed tail appended.

± gives the standard deviation.

The record followed here is the supplement of paper PMC10567573.
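Also: 24-mer peptide tiles fused after GFP, lentivirally expressed, FACS-sorted into six equal bins by GFP/DsRed ratio, decoded by Illumina sequencing, PSI is the read-weighted mean bin number.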

PLFSNWWIQVTSLRIFVWLLLLYF [PHTF1]: the protein stability index runs as follows: (treatment: DMSO) 2.21 ± 0.22; (treatment: MLN4924 1 uM, 8 h) 2.5 ± 0.49.

Take PLRADHMVKEPVEDTDPSTLSFNM [EDARADD]: the protein stability index by setting is: (treatment: DMSO) 5.1 ± 0.083; (treatment: MLN4924 1 uM, 8 h) 4.86 ± 0.46.

Consider PMLETASKLLLSGTADGADLRTVD [ANKRD17], for which the protein stability index came to 4.68 ± 0.077 (treatment: DMSO) and 4.67 ± 0.22 (treatment: MLN4924 1 uM, 8 h).

As for PMVLKGKIRPDSSRPELLQPLNFV [GLT8D2], the protein stability index is 2.83 ± 0.2 (treatment: DMSO) and 3 ± 0.3 (treatment: MLN4924 1 uM, 8 h).

For PNKDMVVQLIDDFKISGMNGIHVC [SRPK2], the protein stability index turned out to be 2.38 ± 0.27 (treatment: DMSO) and 2.35 ± 0.25 (treatment: MLN4924 1 uM, 8 h).

Turning to PNSTKNQSLPKASPVTTSPTAATT [LCOR], the protein stability index by setting is: (treatment: DMSO) 4.91 ± 0.23; (treatment: MLN4924 1 uM, 8 h) 5.03 ± 0.26.

As to PPELNYGATGECQNFLDPGYPLPK [ZNF449], the protein stability index stood at 4.61 ± 0.2 (treatment: DMSO) and 4.67 ± 0.13 (treatment: MLN4924 1 uM, 8 h).

With PPRGPLGQGAMFRLPTDSHFPYDL [NEUROD6], the protein stability index by setting is: (treatment: DMSO) 3.46 ± 0.18; (treatment: MLN4924 1 uM, 8 h) 3.59 ± 0.38.

For PPRRGVSGDRDENSFSLNSSISSS [MAP2], the protein stability index runs as follows: (treatment: DMSO) 4.84 ± 0.14; (treatment: MLN4924 1 uM, 8 h) 4.74 ± 0.24.

For the sequence PPYLPLAVPEDLADRLVRVHGDPA [FUT8], the protein stability index reads like this: (treatment: DMSO) 4.22 ± 0.12; (treatment: MLN4924 1 uM, 8 h) 4.31 ± 0.28.

Consider PQRYPACAQMLPPNLSPHAPWNYH [TRAF3IP2], for which the protein stability index is, setting by setting: (treatment: DMSO) 2.31 ± 0.37; (treatment: MLN4924 1 uM, 8 h) 2.11 ± 0.25.

In turn, PQTPAAPPATLGEGSADTEDRKLP [EHMT1] displayed a protein stability index (treatment: DMSO) of 5.44 ± 0.28 and a protein stability index (treatment: MLN4924 1 uM, 8 h) of 5.36 ± 0.35.

With PRKTAAPVNALVSHLLVVEPEKLY [ESRRA], the protein stability index came to 2.83 ± 0.22 (treatment: DMSO) and 2.5 ± 0.18 (treatment: MLN4924 1 uM, 8 h).

As for PRLWTTCRDGEVLLRLSKHGPGHE [ACSBG2], the protein stability index runs as follows: (treatment: DMSO) 2.4 ± 0.15; (treatment: MLN4924 1 uM, 8 h) 2.21 ± 0.17.

With PSDLDLVMSEGLGMRYAFIGPLET [CRYL1], the protein stability index runs as follows: (treatment: DMSO) 2.46 ± 0.63; (treatment: MLN4924 1 uM, 8 h) 2.6 ± 0.39.

With PSRAPPSTQEPQSPREGEELKPED [GNAS], the protein stability index was 5.5 ± 0.33 (treatment: DMSO) and 5.5 ± 0.32 (treatment: MLN4924 1 uM, 8 h).

In turn, PSSQSSSGGGRDSSSSILRWLPEK [ELOA2] displayed a protein stability index (treatment: DMSO) of 4.15 ± 0.12 and a protein stability index (treatment: MLN4924 1 uM, 8 h) of 4.25 ± 0.1.

For PSTICFGQGAARGFKSNKKKTKQC [ZNF511], the protein stability index runs as follows: (treatment: DMSO) 4.14 ± 0.83; (treatment: MLN4924 1 uM, 8 h) 3.84 ± 0.068.

On to PTLKKCEDVARPTQRLWDFTQSGP [GALNT9], for which the protein stability index runs as follows: (treatment: DMSO) 3.69 ± 0.24; (treatment: MLN4924 1 uM, 8 h) 4 ± 0.17.

On to PTPSSPLPSVPVSVPASDPRSCSS [PLEKHN1], for which the protein stability index runs as follows: (treatment: DMSO) 5.15 ± 0.2; (treatment: MLN4924 1 uM, 8 h) 5.14 ± 0.26.

Consider PTQKALYNDVMQENYETVISLALF [ZNF75A], for which the protein stability index worked out at 2.57 ± 0.45 (treatment: DMSO) and 2.47 ± 0.37 (treatment: MLN4924 1 uM, 8 h).

On to PTTRNYPELNNNQYNRSSNSNGGN [CDC14A], for which the protein stability index turned out to be 4.654 ± 0.022 (treatment: DMSO) and 4.79 ± 0.1 (treatment: MLN4924 1 uM, 8 h).

For the sequence PTVKDLIGGFTALHYAAMHGRARI [ASB7], the protein stability index by setting is: (treatment: DMSO) 2.56 ± 0.47; (treatment: MLN4924 1 uM, 8 h) 2.4 ± 0.43.

PVACGSVLSEGSPLTEQEESSPSH [SRPK2]: the protein stability index stood at 5.52 ± 0.17 (treatment: DMSO) and 5.51 ± 0.17 (treatment: MLN4924 1 uM, 8 h).

With PVLRFDALWQVLARDCFATGRHYW [TRIM14], the protein stability index is 3.5 ± 0.53 (treatment: DMSO) and 3.21 ± 0.88 (treatment: MLN4924 1 uM, 8 h).

For the sequence PVQASQLEEEFDSDSGLSLDSSHS [NFE2L1], the protein stability index turned out to be 5.51 ± 0.11 (treatment: DMSO) and 5.46 ± 0.22 (treatment: MLN4924 1 uM, 8 h).

For the sequence PYIQLPSHSNITGIVEVILGETKA [TRIB1], the protein stability index came to 2.63 ± 0.48 (treatment: DMSO) and 2.67 ± 0.52 (treatment: MLN4924 1 uM, 8 h).

As to PYLLGPDKNLTEREVFNEIYPVWT [SLC19A2], the protein stability index is, setting by setting: (treatment: DMSO) 2.35 ± 0.24; (treatment: MLN4924 1 uM, 8 h) 2.71 ± 0.26.

Take QAFLDELESSDLPVALLLAQHKDR [MNAT1]: the protein stability index was 3.53 ± 0.13 (treatment: DMSO) and 3.49 ± 0.21 (treatment: MLN4924 1 uM, 8 h).

For QALMLPPGSFWGLCQVAQEALASA [VENTX], the protein stability index reads like this: (treatment: DMSO) 2.04 ± 0.25; (treatment: MLN4924 1 uM, 8 h) 2.18 ± 0.42.

QAQGQLRELLDRAMREAIQSYPSQ [SOAT2]: the protein stability index by setting is: (treatment: DMSO) 3.01 ± 0.31; (treatment: MLN4924 1 uM, 8 h) 3.11 ± 0.31.

As for QAQKCYRDLALVSRDGMNIVLNKI [INTS3], the protein stability index (treatment: DMSO) turned out to be 2.29 ± 0.23 and the protein stability index (treatment: MLN4924 1 uM, 8 h) amounted to 2.61 ± 0.44.

For QCAVLIYTSGTTGIPKGVMLSHDN [ACSBG2], the protein stability index stood at 2.65 ± 0.51 (treatment: DMSO) and 2.58 ± 0.72 (treatment: MLN4924 1 uM, 8 h).

In the case of QDFAKDLLKTLYNSIKNEKLEWAI [PSD2], the protein stability index is, setting by setting: (treatment: DMSO) 2.32 ± 0.47; (treatment: MLN4924 1 uM, 8 h) 2.23 ± 0.25.

For QEAVPLGLGLEDADWTQGLPWRFE [TEX19], the protein stability index by setting is: (treatment: DMSO) 3.34 ± 0.21; (treatment: MLN4924 1 uM, 8 h) 3.34 ± 0.3.

Turning to QEITEQQDIAQEISEAFSQRVGFG [CHMP4C], the protein stability index is, setting by setting: (treatment: DMSO) 5.02 ± 0.14; (treatment: MLN4924 1 uM, 8 h) 4.77 ± 0.38.
